Assay results published in patent publication US20240029824A1 (University of Washington, published 2024).

Assays:
Test in all cases: individually purified chains mixed 1:1:1, heat annealed, SEC
[1] = target: T1, DHT03_3arm chain B (B21, SEQ ID NO: 73)
T1 construct: separately expressed with an N- or C-terminal 6xHis-tag
T1 chain: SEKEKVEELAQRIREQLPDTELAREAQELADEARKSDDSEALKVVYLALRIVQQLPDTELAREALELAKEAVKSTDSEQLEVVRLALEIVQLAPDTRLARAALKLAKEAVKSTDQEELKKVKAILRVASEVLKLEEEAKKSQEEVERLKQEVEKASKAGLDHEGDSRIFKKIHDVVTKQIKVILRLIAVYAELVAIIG
Excerpt: (§1) To test this idea, an equimolar amount of individually purified A, B, and C of DHT03_2arm_A21/B21/C were mixed together and run through an annealing protocol (see Methods) to allow these interfaces to reassemble in the presence of all components. A monodisperse SEC peak was observed belonging to the ABC heterotrimer state as confirmed by overlap with its SEC co-expressed tricistronic version (FIG. 3d). To explore the use of this approach for building, four different repeat protein fusions to chain C were annealed in the same manner and all four 3-arm heterotrimers were successfully reconstituted. […] The successful reconstitution of these ABC assemblies, following the independent expression and purification of each chain and explicit mixing at a 1:1:1 ratio, enables their use in conjunction with other de novo proteins to mediate the specific assembly of multi-component assemblies. Independent expression also has considerable advantages over tricistronic expression from a gene synthesis perspective as DNA becomes much more difficult and expensive to synthesize with increasing construct size.
(§2) To test whether the DHT03 components could properly assemble in the presence of other helical hairpin containing chains, as would be the case for more complex assemblies, we chose DHD131, a designed helical hairpin unit heterodimer containing buried hydrogen bond networks¹². […] We evaluated simultaneous reconstitution of DHD131 and DHT03_3arm_A21/B21/C82, since the size difference between the two constructs (if correctly assembled) should be detected by SEC. We separately expressed and individually purified the two chains of the heterodimer and the three chains of the heterotrimer, mixed them at a 1:1:1:1:1 ratio, and carried out annealing and SEC as described above.

[2] = target: T2, DHT03_3arm_A21/B21/C53 chain C
T2 chain: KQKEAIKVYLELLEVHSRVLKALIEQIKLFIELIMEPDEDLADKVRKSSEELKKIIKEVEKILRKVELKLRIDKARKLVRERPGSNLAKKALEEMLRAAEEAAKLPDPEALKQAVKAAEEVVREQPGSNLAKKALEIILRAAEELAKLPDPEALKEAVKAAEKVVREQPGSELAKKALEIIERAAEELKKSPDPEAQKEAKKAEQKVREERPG
Excerpt: as §1, §2

[3] = target: T3, DHT03_3arm_A21/B21/C59 chain C
T3 chain: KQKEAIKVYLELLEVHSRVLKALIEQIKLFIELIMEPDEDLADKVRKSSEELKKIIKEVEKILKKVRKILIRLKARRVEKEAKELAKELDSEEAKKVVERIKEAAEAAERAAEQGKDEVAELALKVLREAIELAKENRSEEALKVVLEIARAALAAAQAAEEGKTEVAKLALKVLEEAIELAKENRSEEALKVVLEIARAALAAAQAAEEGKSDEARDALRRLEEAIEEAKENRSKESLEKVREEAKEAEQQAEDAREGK
Excerpt: as §1, §2

[4] = target: T4, DHT03_3arm_A21/B21/C62 chain C
T4 chain: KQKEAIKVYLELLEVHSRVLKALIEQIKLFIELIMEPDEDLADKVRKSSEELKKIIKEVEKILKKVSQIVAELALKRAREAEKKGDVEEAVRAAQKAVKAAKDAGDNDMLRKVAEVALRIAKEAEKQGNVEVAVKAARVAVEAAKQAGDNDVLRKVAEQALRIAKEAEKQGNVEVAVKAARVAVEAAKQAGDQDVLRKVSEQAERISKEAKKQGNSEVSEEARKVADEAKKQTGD
Excerpt: as §1, §2

[5] = target: T5, DHT03_3arm_A21/B21/C82 chain C
T5 construct: also called chain C DHR82 fusion; chain C of C3-DHT03-01-DHR82 and C4-DHT03-01-DHR82
T5 chain: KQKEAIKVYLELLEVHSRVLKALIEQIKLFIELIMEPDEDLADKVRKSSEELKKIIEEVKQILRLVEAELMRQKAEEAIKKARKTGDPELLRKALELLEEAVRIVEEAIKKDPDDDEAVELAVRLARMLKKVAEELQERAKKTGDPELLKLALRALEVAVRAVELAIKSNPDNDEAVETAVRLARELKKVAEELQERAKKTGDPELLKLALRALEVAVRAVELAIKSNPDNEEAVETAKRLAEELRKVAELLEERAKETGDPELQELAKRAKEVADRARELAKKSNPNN
Excerpt: as §1, §2

Measured: binding result

B1: DHT03_3arm chain A (A21, SEQ ID NO: 72) (designed binder)
chain: SEKEKVEELAQRIREQLPDTELAREAQELADEARKSDDSEALKVVYLALRIVQQLPDTELAREALELAKEAVKSTDSEALKVVYLALRIVQQLPDTELARLALELAKKAVEMTAQEVLAIAKAALKAAQAFPNTELAELMLRLAEVAARVMKELERNDEEIKKSDELDDASLLADIVRLLAEIIKLWKILVEVSDVMLKLIS
notes: separately expressed with an N- or C-terminal 6xHis-tag
binds: all assays above
